The RNAGym collection of RNA variant scans (doi:10.7554/elife.90254)

B1: LINE1-mini (parent)
chain: GGCAGAGCUCAACACAGCGUGGCAAAGUGGCUGUGGCUAGACUGCC

Variants of: B1
Test: self-cleavage, relative activity (ratio to wild type); higher = more cleavage; in vitro, sequencing; the parent is a self-cleaving ribozyme
For GGCAGAGCACAACACAGUGUGGCAAAGUGGCUGUGGCUAGACUGCC, the self-cleavage was 0.11.
Variant GGCAGAGCACAACACAGGGUGGCAAAGUGGCUGUGGCUAGACUGCC has a self-cleavage of 0.09.
For GGCAGAGCACAACACAGAGUGGCAAAGUGGCUGUGGCUAGACUGCC, the self-cleavage was 0.1.
GGCAGAGCACAACACAGCGUGGCAAAGUGGCUGUGCCUAGACUGCC showed a self-cleavage of 0.06.
Work on GGCAGAGCACAACACAGCGUGGCAAAGUGGCUGUGACUAGACUGCC yielded a self-cleavage of 0.34.
With GGCAGAGCACAACACAGCGUGGCAAAGUGGCUGUGUCUAGACUGCC the self-cleavage was 0.1.
GGCAGAGCACAACACAGCGUGGCAAAGUGGCAGUGGCUAGACUGCC showed a self-cleavage of 0.11.
In the case of GGCAGAGCACAACACAGCGUGGCAAAGUGGCCGUGGCUAGACUGCC, the self-cleavage is reported as 0.13.
GGCAGAGCACAACACAGCGUGGCAAAGUGGCGGUGGCUAGACUGCC gave a self-cleavage of 0.19.
GGCAGAGCACAACACAACGUGGCAAAGUGGCUGUGGCUAGACUGCC gave a self-cleavage of 0.07.
Variant GGCAGAGCACAACACACCGUGGCAAAGUGGCUGUGGCUAGACUGCC has a self-cleavage of 0.06.
GGCAGAGCACAACACAUCGUGGCAAAGUGGCUGUGGCUAGACUGCC gave a self-cleavage of 0.13.
In the case of GGCAGAGCACGACACAGCGUGGCAAAGUGGCUGUGGCUAGACUGCC, the self-cleavage is reported as 0.03.
For GGCAGAGCACUACACAGCGUGGCAAAGUGGCUGUGGCUAGACUGCC, the self-cleavage was 0.03.
GGCAGAGCACCACACAGCGUGGCAAAGUGGCUGUGGCUAGACUGCC gave a self-cleavage of 0.02.
GGCAGAGCACAACACAGCGUGGCAAAGUGGCUGUGGCAAGACUGCC showed a self-cleavage of 0.08.
For GGCAGAGCACAACACAGCGUGGCAAAGUGGCUGUGGCCAGACUGCC, the self-cleavage was 0.12.
Variant GGCAGAGCACAACACAGCGUGGCAAAGUGGCUGUGGCGAGACUGCC has a self-cleavage of 0.22.
Variant GGCAGAGCACAACAGAGCGUGGCAAAGUGGCUGUGGCUAGACUGCC has a self-cleavage of 0.25.
GGCAGAGCACAACAAAGCGUGGCAAAGUGGCUGUGGCUAGACUGCC showed a self-cleavage of 0.13.
For GGCAGAGCACAACAUAGCGUGGCAAAGUGGCUGUGGCUAGACUGCC, the self-cleavage was 0.17.
Variant GGCAGAGCACAACACAGCGUGGCAUAGUGGCUGUGGCUAGACUGCC has a self-cleavage of 0.15.
GGCAGAGCACAACACAGCGUGGCACAGUGGCUGUGGCUAGACUGCC gave a self-cleavage of 0.07.
In the case of GGCAGAGCACAACACAGCGUGGCAGAGUGGCUGUGGCUAGACUGCC, the self-cleavage is reported as 0.17.
GGCAGAGCACAACACAGCGUGGCAACGUGGCUGUGGCUAGACUGCC gave a self-cleavage of 0.23.
In the case of GGCAGAGCACAACACAGCGUGGCAAGGUGGCUGUGGCUAGACUGCC, the self-cleavage is reported as 0.09.
With GGCAGAGCACAACACAGCGUGGCAAUGUGGCUGUGGCUAGACUGCC the self-cleavage was 0.21.
For GGCAGAGCACAACACAGCGUGGCUAAGUGGCUGUGGCUAGACUGCC, the self-cleavage was 0.33.
Work on GGCAGAGCACAACACAGCGUGGCGAAGUGGCUGUGGCUAGACUGCC yielded a self-cleavage of 0.2.
With GGCAGAGCACAACACAGCGUGGCCAAGUGGCUGUGGCUAGACUGCC the self-cleavage was 0.56.
Variant GGCAGAGCACAACACAGCGUGGCAAACUGGCUGUGGCUAGACUGCC has a self-cleavage of 0.11.
With GGCAGAGCACAACACAGCGUGGCAAAAUGGCUGUGGCUAGACUGCC the self-cleavage was 0.1.
Variant GGCAGAGCACAACACAGCGUGGCAAAUUGGCUGUGGCUAGACUGCC has a self-cleavage of 0.14.
GGCAGAGCACAACACAGCGUGGCAAAGUGGCUAUGGCUAGACUGCC showed a self-cleavage of 0.11.
Work on GGCAGAGCACAACACAGCGUGGCAAAGUGGCUUUGGCUAGACUGCC yielded a self-cleavage of 0.07.
For GGCAGAGCACAACACAGCGUGGCAAAGUGGCUCUGGCUAGACUGCC, the self-cleavage was 0.07.
In the case of GGCAGAGCACAACACAGCGUGGCAAAGUGGCUGUGGCUUGACUGCC, the self-cleavage is reported as 0.1.
GGCAGAGCACAACACAGCGUGGCAAAGUGGCUGUGGCUCGACUGCC gave a self-cleavage of 0.17.
Work on GGCAGAGCACAACACAGCGUGGCAAAGUGGCUGUGGCUGGACUGCC yielded a self-cleavage of 0.21.
For GGCAGAGCACAACACAGCGUGGCAAAGUGGCUGUGGCUAGACUGCG, the self-cleavage was 0.12.
In the case of GGCAGAGCACAACACAGCGUGGCAAAGUGGCUGUGGCUAGACUGCU, the self-cleavage is reported as 0.17.
For GGCAGAGCACAACACAGCGUGGCAAAGUGGCUGUGGCUAGACUGCA, the self-cleavage was 0.17.
With GGCAGAGCACAACACAGCGUGGCAAAGAGGCUGUGGCUAGACUGCC the self-cleavage was 0.17.
Variant GGCAGAGCACAACACAGCGUGGCAAAGGGGCUGUGGCUAGACUGCC has a self-cleavage of 0.15.
Variant GGCAGAGCACAACACAGCGUGGCAAAGCGGCUGUGGCUAGACUGCC has a self-cleavage of 0.1.
GGCAGAGCACAACACAGCAUGGCAAAGUGGCUGUGGCUAGACUGCC gave a self-cleavage of 0.15.
In the case of GGCAGAGCACAACACAGCUUGGCAAAGUGGCUGUGGCUAGACUGCC, the self-cleavage is reported as 0.08.
Work on GGCAGAGCACAACACAGCCUGGCAAAGUGGCUGUGGCUAGACUGCC yielded a self-cleavage of 0.06.
GGCAGAGCACAACACAGCGUGGAAAAGUGGCUGUGGCUAGACUGCC showed a self-cleavage of 0.14.
For GGCAGAGCACAACACAGCGUGGUAAAGUGGCUGUGGCUAGACUGCC, the self-cleavage was 0.21.
In the case of GGCAGAGCACAACACAGCGUGGGAAAGUGGCUGUGGCUAGACUGCC, the self-cleavage is reported as 0.16.
For GGCAGAGCACAUCACAGCGUGGCAAAGUGGCUGUGGCUAGACUGCC, the self-cleavage was 0.13.
Work on GGCAGAGCACACCACAGCGUGGCAAAGUGGCUGUGGCUAGACUGCC yielded a self-cleavage of 0.03.
GGCAGAGCACAGCACAGCGUGGCAAAGUGGCUGUGGCUAGACUGCC gave a self-cleavage of 0.05.
With GGCAGAGCACAACACAGCGUGGCAAAGUGGCUGUGGCUAGGCUGCC the self-cleavage was 0.05.
GGCAGAGCACAACACAGCGUGGCAAAGUGGCUGUGGCUAGCCUGCC gave a self-cleavage of 0.08.
